Data as given in patent publication US20240132578A1 (published 2024).

What was measured:
[1] = target: HIV-1 93IN905 envelope protein (Env) on pseudotyped virus (HIV-1 strain 93IN905); test: cell-based or functional assay
[2] = target: HIV-1 IAVI_C22 envelope protein (Env) on pseudotyped virus (HIV-1 strain IAVI C22); test: cell-based or functional assay
[3] = target: HIV-1 92TH021 envelope protein (Env) on pseudotyped virus (HIV-1 strain 92TH021); test: cell-based or functional assay
[4] = target: HIV-1 JR-CSF envelope protein (Env) on pseudotyped virus (HIV-1 isolate JR-CSF, UniProt P20871 32-848); test: cell-based or functional assay
[5] = target: HIV-1 NL43 envelope protein (Env) on pseudotyped virus (HIV-1 strain NL43); test: cell-based or functional assay
[6] = target: aMLV envelope on pseudotyped virus (negative control) (aMLV); test: cell-based or functional assay
[7] = target: HIV-1 SF162 envelope protein (Env) on pseudotyped virus (HIV-1 isolate SF162, UniProt P19550 32-847); test: cell-based or functional assay
[8] = target: HIV-1 94UG103 envelope protein (Env) on pseudotyped virus (HIV-1 strain 94UG103); test: cell-based or functional assay
[9] = target: HIV-1 92BR020 envelope protein (Env) on pseudotyped virus (HIV-1 strain 92BR020); test: cell-based or functional assay
[10] = target: HIV-1 93UG077 Env (clade A pseudovirus) (HIV-1); test: cell-based or functional assay
[11] = target: HIV-1 92BR020 Env (clade B pseudovirus) (HIV-1); test: cell-based or functional assay
[12] = target: HIV-1 APV-13 Env (clade B pseudovirus) (HIV-1); test: cell-based or functional assay
[13] = target: HIV-1 JRCSF Env (clade B pseudovirus) (HIV-1, UniProt P20871 32-848); test: cell-based or functional assay
[14] = target: HIV-1 APV-17 Env (clade B pseudovirus) (HIV-1); test: cell-based or functional assay
[15] = target: HIV-1 APV-6 Env (clade B pseudovirus) (HIV-1); test: cell-based or functional assay
[16] = target: HIV-1 IAVI-C18 Env (clade C pseudovirus) (HIV-1); test: cell-based or functional assay
[17] = target: HIV-1 IAVI-C3 Env (clade C pseudovirus) (HIV-1); test: cell-based or functional assay
[18] = target: HIV-1 92UG005 Env (clade D pseudovirus) (HIV-1); test: cell-based or functional assay
[19] = target: HIV-1 CMU02 Env (CRF01_AE pseudovirus) (HIV-1); test: cell-based or functional assay
[20] = target: aMLV envelope (negative control pseudovirus); test: cell-based or functional assay
[21] = target: HIV-1 94UG103 Env (clade A pseudovirus) (HIV-1); test: cell-based or functional assay
[22] = target: HIV-1 92RW020 Env (clade A pseudovirus) (HIV-1); test: cell-based or functional assay
recombinant gp41 HxB2 = target: T1, recombinant gp41 HxB2 (HIV-1, UniProt P04578 541-682); test: screening ELISA on recombinant gp41 (column mAb Specificity)
T1 construct: domain: gp41

recombinant gp41HxB2 = target: T2, recombinant gp41HxB2 (HIV-1 clone HxB2, UniProt P04578 541-682); test: ELISA, initial screen of B cell culture supernatants
T2 construct: domain: gp41

[23] = target: HIV-1 93IN905 Env (clade C pseudovirus) (HIV-1); test: cell-based or functional assay
[24] = target: HIV-1 IAVI-C22 Env (clade C pseudovirus) (HIV-1); test: cell-based or functional assay
[25] = target: HIV-1 92UG024 Env (clade D pseudovirus) (HIV-1); test: cell-based or functional assay
[26] = target: HIV-1 92TH021 Env (CRF01_AE pseudovirus) (HIV-1); test: cell-based or functional assay
[27] = target: T3, recombinant, monomeric gp120 JR-CSF (HIV-1, UniProt P20871 32-503); test: screening ELISA on recombinant gp120 (column mAb Specificity)
T3 construct: domain: gp120; also called JR-CSF gp120

[28] = target: T4, HIV-1 YU2 gp160 expressed on the cell surface (HIV-1 strain YU2, UniProt P35961 32-843); test: flow cytometry on transfected cells (FIG. 8)
T4 construct: whole, on cells

[29] = target: T5, V1/V2 deleted HIV-1JR-CSF Env expressed on transfected cells (HIV-1 strain JR-CSF, UniProt P20871 32-848); test: flow cytometry on transfected 293T cells (FIG. 13E)
T5 construct: whole, on cells; also called variable loop deleted HIV-1JR-CSF variant (V1/V2)

[30] = target: T6, V3 deleted HIV-1JR-CSF Env expressed on transfected cells (HIV-1 strain JR-CSF, UniProt P20871 32-848); test: as above
T6 construct: whole, on cells; also called variable loop deleted HIV-1JR-CSF variant (V3)

[31] = target: T7, recombinant, monomeric gp120JR-CSF (HIV-1 isolate JR-CSF, UniProt P20871 32-503); test: ELISA, initial screen of B cell culture supernatants
T7 construct: domain: gp120; also called JR-CSF gp120; JR-CSFgp120

Row | Binder | IC50 (µg/mL), pseudovirus neutralization [10] [µg/mL] | IC50 (µg/mL), pseudovirus neutralization [11] [µg/mL] | IC50 (µg/mL), pseudovirus neutralization [12] [µg/mL] | IC50 (µg/mL), pseudovirus neutralization [13] [µg/mL] | IC50 (µg/mL), pseudovirus neutralization [14] [µg/mL] | IC50 (µg/mL), pseudovirus neutralization [15] [µg/mL] | IC50 (µg/mL), pseudovirus neutralization [16] [µg/mL] | IC50 (µg/mL), pseudovirus neutralization [17] [µg/mL] | IC50 (µg/mL), pseudovirus neutralization [18] [µg/mL] | IC50 (µg/mL), pseudovirus neutralization [19] [µg/mL] | IC50 (µg/mL), pseudovirus neutralization [20] [µg/mL] | IC50 (µg/mL), pseudovirus neutralization [21] [µg/mL] | IC50 (µg/mL), pseudovirus neutralization [22] [µg/mL] | binding result (recombinant gp41 HxB2) | binding result (recombinant gp41HxB2) | also measured
1 | 1460_G14 (PGG14) (antibody, human IgG1, kappa, V domains shown) VH: QVLLVQSGTEVKKPGSSVKVSCQASGGAFSSYAFSWVRQAPGQGLEWMGMITPVFGETKYAPRFQGRLTLTAEESLSTTYMELRSLTSDDTAFYYCTRDRRVVPMATDNWLDPWGQGTLVTVSS VL: DIQLTQSPSSLSASVGDRVTVTCRASQTIHTYLNWYQQIPGKAPKLLIYGASTLQSGVPSRFSGSGSGTDFTLTINSLQPEDFATYYCQQSYSTPRTFGQGTRLDIKR |  |  |  |  |  |  |  |  |  |  |  |  |  |  |  | IC50, Neutralizing Antibody Assay, Virus/Ab Incubation 1 hour [1]: > 50 µg/mL; IC50, Neutralizing Antibody Assay, Virus/Ab Incubation 18 hour [1]: 3.17 µg/mL; IC50, Neutralizing Antibody Assay, Virus/Ab Incubation 1 hour [2]: > 50 µg/mL; IC50, Neutralizing Antibody Assay, Virus/Ab Incubation 18 hour [2]: > 50 µg/mL; IC50, Neutralizing Antibody Assay, Virus/Ab Incubation 1 hour [3]: > 50 µg/mL; IC50, Neutralizing Antibody Assay, Virus/Ab Incubation 18 hour [3]: > 50 µg/mL; IC50, Neutralizing Antibody Assay, Virus/Ab Incubation 1 hour [4]: > 50 µg/mL; IC50, Neutralizing Antibody Assay, Virus/Ab Incubation 18 hour [4]: > 50 µg/mL; IC50, Neutralizing Antibody Assay, Virus/Ab Incubation 1 hour [5]: 0.17 µg/mL; IC50, Neutralizing Antibody Assay, Virus/Ab Incubation 18 hour [5]: 0.05 µg/mL; IC50, Neutralizing Antibody Assay, Virus/Ab Incubation 1 hour [6]: > 50 µg/mL; IC50, Neutralizing Antibody Assay, Virus/Ab Incubation 18 hour [6]: > 50 µg/mL; IC50, Neutralizing Antibody Assay, Virus/Ab Incubation 1 hour [7]: 0.179 µg/mL; IC50, Neutralizing Antibody Assay, Virus/Ab Incubation 18 hour [7]: 0.0573 µg/mL; IC50, Neutralizing Antibody Assay, Virus/Ab Incubation 1 hour [8]: > 50 µg/mL; IC50, Neutralizing Antibody Assay, Virus/Ab Incubation 18 hour [8]: > 50 µg/mL; IC50, Neutralizing Antibody Assay, Virus/Ab Incubation 1 hour [9]: > 50 µg/mL; IC50, Neutralizing Antibody Assay, Virus/Ab Incubation 18 hour [9]: > 50 µg/mL
2 | 1496_C09 (PG9) (TCN-109) (antibody, V domains shown) VH: QRLVESGGGVVQPGSSLRLSCAASGFDFSRQGMHWVRQAPGQGLEWVAFIKYDGSEKYHADSVWGRLSISRDNSKDTLYLQMNSLRVEDTATYFCVREAGGPDYRNGYNYYDFYDGYYNYHYMDVWGKGTTVTVSS VL: QSALTQPASVSGSPGQSITISCNGTSNDVGGYESVSWYQQHPGKAPKVVIYDVSKRPSGVSNRFSGSKSGNTASLTISGLQAEDEGDYYCKSLTSTRRRVFGTGTKLTVLG [1496_C09 (PG9) (TCN-109), listing 1 of 2 here] | > 50 | > 50 | > 50 | < 0.0025 | 26.4 | 0.09 | 0.05 | 12.9 | > 50 | > 50 | > 50 | 0.17 | 0.06 | no binding |  | 
3 | 1496_C09 (PG9) (TCN-109) (antibody, V domains shown) VH: QRLVESGGGVVQPGSSLRLSCAASGFDFSRQGMHWVRQAPGQGLEWVAFIKYDGSEKYHADSVWGRLSISRDNSKDTLYLQMNSLRVEDTATYFCVREAGGPDYRNGYNYYDFYDGYYNYHYMDVWGKGTTVTVSS VL: QSALTQPASVSGSPGQSITISCNGTSNDVGGYESVSWYQQHPGKAPKVVIYDVSKRPSGVSNRFSGSKSGNTASLTISGLQAEDEGDYYCKSLTSTRRRVFGTGTKLTVLG [1496_C09 (PG9) (TCN-109), listing 2 of 2 here] |  |  |  |  |  |  |  |  |  |  |  |  |  |  | no binding | 
4 | 1443_C16 (PG16) (TCN-116) (antibody, V domains shown) VH: QEQLVESGGGVVQPGGSLRLSCLASGFTFHKYGMHWVRQAPGKGLEWVALISDDGMRKYHSDSMWGRVTISRDNSKNTLYLQFSSLKVEDTAMFFCAREAGGPIWHDDVKYYDFNDGYYNYHYMDVWGKGTTVTVSS VL: QSALTQPASVSGSPGQTITISCNGTSSDVGGFDSVSWYQQSPGKAPKVMVFDVSHRPSGISNRFSGSKSGNTASLTISGLHIEDEGDYFCSSLTDRSHRIFGGGTKVTVLG [1443_C16 (PG16) (TCN-116), listing 1 of 2 here] | > 50 | > 50 | > 50 | < 0.0025 | > 50 | 0.08 | 0.007 | 14.8 | > 50 | > 50 | > 50 | 0.008 | 0.004 | no binding |  | IC50 (µg/mL), pseudovirus neutralization [23]: 0.1 µg/mL; IC50 (µg/mL), pseudovirus neutralization [24]: 0.069 µg/mL; IC50 (µg/mL), pseudovirus neutralization [25]: > 50 µg/mL; IC50 (µg/mL), pseudovirus neutralization [26]: 0.13 µg/mL; binding result [27]: no binding
5 | 1443_C16 (PG16) (TCN-116) (antibody, V domains shown) VH: QEQLVESGGGVVQPGGSLRLSCLASGFTFHKYGMHWVRQAPGKGLEWVALISDDGMRKYHSDSMWGRVTISRDNSKNTLYLQFSSLKVEDTAMFFCAREAGGPIWHDDVKYYDFNDGYYNYHYMDVWGKGTTVTVSS VL: QSALTQPASVSGSPGQTITISCNGTSSDVGGFDSVSWYQQSPGKAPKVMVFDVSHRPSGISNRFSGSKSGNTASLTISGLHIEDEGDYFCSSLTDRSHRIFGGGTKVTVLG [1443_C16 (PG16) (TCN-116), listing 2 of 2 here] |  |  |  |  |  |  |  |  |  |  |  |  |  |  | no binding | binding result [28]: binds; binding result [29]: no binding; binding result [30]: no binding; binding result [31]: no binding
